{"source": "the DeepSol protein solubility set"}
{"assay": "soluble on expression in E. coli; label from the status in PepcDB or PDB records"}
{"sequence": "MSLNAHLSAAWPVPVSVAPDALAEIQADFSREWLRLCDEAKRGVLGAPADKRFAGAAWLDDRQRLLMAHAYLLSARAMARLVEAAQVSEPMRNRLRFSVMQWVDAMSPANFLAFNPDAQRAIVESAGRTLQEGMANLLNDIQRGRISQTDETQFEIGRNVATTPGHVVFENSLMQLIQYAPQTAKVCERPLVIVPPNINKYYILDLQPENSFVRYAVEQGHTVFIISWRNPLAADTDGVDTATWSEYLDDAVLKALAVASDISGQPQVNALGFCVGGTMLASALALAQARGERPVASLTLLTSLLDFHDTGILKVFVDEAHALLRDHQYGQRGLMPARDLATTFSFLRPNELVWNYVVSNYLKGKTPPAFDLLFWNADSTNLPGPFFAWYFRNTYLENNLKVPGRARAAGVPLDLTRLDMPAYLYGSREDHIVPWPSAYASTQLLRGPMRFVLGASGHIAGVINPPAKQRRSYWVNESAGEGHHHHHH", "soluble on expression in E. coli": "not soluble"}
{"sequence": "MSLNAKPKDTVIANARIVLADRVIEQGWLALANGRVAEIGEGRAPAGAEDAGGDLIMPGLIELHTDHLEAHYVPRPKVFWNPVAAVVSYDGQLATSGITTVFDSLRVWREDGAEEVDGRAGVLAAAITTARDADLLRADHFLHLRCEIPMPSVVEEAKELIDRPDVKLMSLMDHTPGQRQFRDEGKLRDYYRGKNGGKTDAQLDELFAKRFEYQKAYAATNMREIVALAHQYNIPLASHDDTTEENVADAVRDRVSVAEFPTTLEAARGLHQAGIDILMGAPNVVRGGSHSGNIAAVDLAREGLLDILSSDYIPSSLLMAALQLPEHVPAISLPAAVRTVTKAPAEAVGLSDRGEIAVGKRADLIRVHIAGSVPVVRSVWREGGRVAEGHHHHHH", "soluble on expression in E. coli": "soluble"}
{"sequence": "MSLNAPRIIGVIVPDIVTHFFASILNGIENMAIDNGYFVIITTSHESFEHEKRNIENLVNMRVEGIIACLSQETTDFSHFAALKEINMPLILFDRVCLTDQFSSVIADGAQSAQMATQHLLDNGSKRVAFIGGANHLDIVKRRKHGYLEALRDNRIPIEKELVVCRKIDYEEGQIATETLLSLPQPPDAILAMNDTLAFAAMEVIKRHGLRIPDDIAIIGYTDEQHANYVEPKLSAVSHQTYKMGETACQLLIDQIKGDRTVKQVVIPTHLQIRESSIEGHHHHHH", "soluble on expression in E. coli": "soluble"}
{"sequence": "MSLNDKVTAVRDVWRYEQGEISKVEDRMVTEFPLTVILNGSEFVTLVCTPEHIEELVIGFLASEGVIRFQKEIKRFTIDESLGFVYVDLVHPETLDQKDYTKRVIGSCCGKGRHFYFQQDVKTAKTAVSQIKISPEACLALMKDMQQGSGTFQDTGGVHNAALCDTEKLLLMRTDIGRHNALDKLYGHCLLNGMSVRDKLIVFSGRISSEVLLKAAKIGVSIVISKSAPTELAIQMAEELNITAIGFVRNGSFNVYTHPERIREEGHHHHHH", "soluble on expression in E. coli": "soluble"}
{"sequence": "MSLNEIDKSVDIGFLRILDVIKKVKTPKGGIEVLRTLIDFTPKIENALNLATKSHKGQYRKSGEPYIVHPICVASVVAFCGGDEAMVCAALLHDVVEDTPCEIETIEREFGQDVANLVDALTKITEIRKEELGVSSQDPRMVVSALTFRKILISAIQDPRALVVKISDRLHNMLTLDALPHDKQVRISKETLAVYAPIASRLGMSSIKNELEDKSFYYIYPEEYKNIKEYLHKNKQSLLLKLNAFASKLEKKLFDSGFSHSDFKLVTRVKRPYSIYLKMQRKGAVNIDEILDLLAIRILLKNPIDCYKVLGIIHLNFKPIVSRFKDYIALPKENGYKTIHTTIFDESSVYEVQIRTFDMHMGAEYGNSAHWKYKAGGVDHEEHHEGMRWLQNFKYHDSDLKNDPKEFYELAKNDLYREDIVVFSPHGDTYTLPVGAIALDFAYMVHSDLGDKATDAYINSKKALLNQELRSGDVVKIIKGDKVIPRFIWMDQLKTSKAKNHLRIQRRNRLKEIDTKSMINILATFFGRSVFEDADLKDYKNFEEKLTDCGVETTLTEAMKSFENLAKLTEEIENKVFSLKEDAILEYQEMSLWTRGLRYLGFKTNVLNFLTPNRQWQCKELEHFSVCSSNALEIKQVLLNDCCYPKYGDEIIAIVTDLKDPKAIAHHKFCKKAIAEVDAKVPMVYIEWHKRDRTIYKMMFYLGEKKSVLASLLTFLNRNECNIVGVSYLGYKDKYSSHCEVSFEIATDKADWMRALINRKYQDRIVELSSLDDAYELQEGHHHHHH", "soluble on expression in E. coli": "soluble"}
{"sequence": "MSLNESEEKNSNSTYSFFFKNLSVTGFYEENCLFMTVKELFDNSIDALCNNKGDENIDEEGQGTQEKKIEIEIKEYGINSSFYEIICRDNGEGIEVKDLEKISEMFLTSKEKCITSGKFGIGLKTILLYSFKTAYGFLHIKIKVKKNKIWDFILVLDKNLNHTFVQNFKEYIDDKWEWTIEISVILKINNNYISDKKIHSYIKLFLLWKKNITVKYIHNPNGEQSIYTYSSHSDTSEENILSMLANNSINMIFKKDFLTSYNYDVNMYVNVRKSEKIIPYEHGHNIGFLFLIRYVNSMPLLRTSSSDCSITVDFRNFLKYYGPQFGIELPTIESRDEMILEELALPSCFDDLNKVANIFPVKRSEKSTWNIMIIGIDVRGRDISFVSLRKNCIKEGEYLSSLIKKCSINLYNNIKRELPQEFENLSDYQLRQALNIYGVQLASSLSKIILKGHEEFKNKIFFLLNEKKKIKNNSTCEKEEYNNKFTSYDENILTRELYSHIKEKIMLNEKTYENPKAKIQLTGDSNKSYYKNEGHHHHHH", "soluble on expression in E. coli": "not soluble"}
{"sequence": "MSLNGKNLTLNVPVTAAVPGARGIKADCITDGACTESSTYFQKSSNAATGSPYMFTIDMQKEAVISEINLSTRLVNGSEAAYKYTIEGSRDGKSYKMLVDGKLNWQVGFLILNIEDPSLYRYLRLRVYGVVNVHKNNSAMWADGIYEFAAYGKEGHHHHHH", "soluble on expression in E. coli": "not soluble"}
{"sequence": "MSLNILIVGGNGGIGLAMVKEALVRFPQAQIHATYRRTKSDYEHSALIWHQVDVTDETQVKNLSQAVNSIDWVINCVGMLHTPNKGPEKNLRMVEPDFFLQNIAVNTLPSMLLAKYFTPLLKCSGAPKFAVVSAKVGSISDNHLGGWYSYRASKAALNMFLKTMSIEWQRTLKNGVVLALHPGTTDTALSEPFQANVPEGKLFTPERVASDLMGQIVKAAPQDSGAFLTYDGEREGHHHHHH", "soluble on expression in E. coli": "soluble"}
{"sequence": "MSLNIPDEGFFTLLTQGMRNRTVETLQRALYHTLRDAILQGTLTARCRLPGSRVMAERLHLSRNTVNAALEQLALEGYLTRSRQGTQVAPLASCRQEAGQMPPVVLPERLQRLPAAMRRDSPTLAFTPGMPAVNYFPLPLWRRLMDNVLREDGSALLGYGEAAGDPLLREAIARHLALSRGIRCDIRQIVITEGALEGVNLCASLLTNPGDSVWLEEPGYLGAWSGFQRAGLRVRGMAVDDEGMCIANGVAEPPRLIFTSPSHQYPCGSIMSAGRRLALVEYARRHGAWIVEDDYDSEFRHSGEPIPAMLGMVPDAPVVYLGTFSKTLFPALRIGFMVMPPALADAAQDAIGALLRGGHRAEQRALASFIEKGHYARHLAAMRRLYRKRQQQLREALAQEITVPCDVLGGGGGMHLTVAMEGVNDRTLAQQARQFQLAPAALSHFYLDPQRARSGLVLGYGNTSASRYLPALRTLNRLIAQHRRAEGHHHHHH", "soluble on expression in E. coli": "not soluble"}
{"sequence": "MSLNKAVLHDHLDGGLRAKTAKELAIKDSYKPLIEIEDIESFFNRESSTSLEDYLEAFVHTTALMSNYDNLERIAFEAAEDMMHFCGITLYESRYAPLYSVNNNLLIKDVLHAINSGFKQAENMYGIKSGLILCGMRNDKDNVSQVSEIAIDFKDQIIGFDIAMGPEYNFLPSLFADEFNKLKNNGINLTIHAGEGDGVNSIQDALDNGAKRIGHGVRIIEDIDTSSKKLGKTAEYVRNKQVPLMEVCITSNIHTNMYEEYNKHPIKDLIDLEFNVSINTDNRLMSNTSMKKEIDIAKNLGINNIDRILENSASYSFLNDFEGHHHHHH", "soluble on expression in E. coli": "soluble"}
{"sequence": "MSLNKEFIMKFSLKSLLTIAAAASTLILAGCGEKAVDNNKVKIGVMAGAEAQVAEVAAKVAKEKYNLDVELVTFTDYVTPNAALDDGSIDANAFQHKPYLDKQIADRGYKLAIVGNTFVYPIAGYSKQIKSVDELQDGARIAVPNDPTNLGRSLLLLQQQGLLKLREDVGLLATVRDIVENPKKLEILELDAAQLPRSLDDVALSIINTTYASSINLTPEKDGIFVENKESPYVNILVAREANVNAENVQNFKKAYQTDEVAKAASEIFQGGAVKGWEGGSHHHHHH", "soluble on expression in E. coli": "soluble"}
{"sequence": "MSLNKELIQHAAYAAIERILNEYFREENLYQVPPQNHQWSIQLSELETLTGEFRYWSAMGHHMYHPEVWLIDGKSKKITTYKEAIARILQHMAQSADNQTAVQQHMAQIMSDIDNSIHRTARYLQSNTIDYVEDRYIVSEQSLYLGHPFHPTPKSASGFSEADLEKYAPECHTSFQLHYLAVHQDVLLTRYVEGKEDQVEKVLYQLADIDISEIPKDFILLPTHPYQINVLRQHPQYMQYSEQGLIKDLGVSGDSVYPTSSVRTVFSKALNIYLKLPIHVKITNFIRTNDLEQIERTIDAAQVIASVKDEVETPHFKLMFEEGYRALLPNPLGQTVEPEMDLLTNSAMIVREGIPNYHADKDIHVLASLFETMPDSPMSKLSQVIEQSGLAPEAWLECYLNRTLLPILKLFSNTGISLEAHVQNTLIELKDGIPDVCFVRDLEGICLSRTIATEKQLVPNVVAASSPVVYAHDEAWHRLKYYVVVNHLGHLVSTIGKATRNEVVLWQLVAHRLMTWKKEYANNAVFVDCVEDLYQTPTIAAKANLMSKLNDCGANPIYTHIPNPICHNKEVSYCESEGHHHHHH", "soluble on expression in E. coli": "soluble"}
{"sequence": "MSLNKYLEQLVLLSKIDQEIDSYEPKIDSINKTLKDAELKIEKINADLEKIDEEIKDIENQKIQNNAHISEFSAKIKDLSKKSGVVKTEKEANALKIEEDIAKEQLDAANDEIVRLDKILENKETYKKELEEEKIKQEQNINEIRVSIKSEMEVLEKDRMSVYDKKTKLVSEMNQKVLSFYEKIRKWAKNTAVVPVKKQACYGCFMKIYDKTYLSVVKGEEIVTCPHCGRILYKEQEEQNEGHHHHHH", "soluble on expression in E. coli": "soluble"}
{"sequence": "MSLNLDFELNLTQQQKLVMTQQMQMSIKLLQMSNMELNEYIRSEIEENPLLDGKEVIKNDEYQSEMSKVDYKEFIKYLDFDNYTHENYSYRSEEEEVSPFNFIGSKKSFTEYLLDQLREISIDSETRHICEYIIENLDRDGYLRDSLEDIGMAVHKELKSVQNALNVVQSLEPIGVGARNLAECLKLQIYVRNVNDTKLIEIIDKHLGNIAENKYGVIAKELNITPKEAQEYGDYIKKLEPKPSRGFFTGDEVKYVVPDAFIRKIDDDFYVIMNDSSIPKLSINNTYKNILNTENDKKDVDYVKEKLNSAMFLLKSIEQRKTTLYEVLNEILRYQKAYFVGKTNYLRPMTLKDISEKLGMHESTISRAIREKYVYIDTKGLVKIRDMFTTGIASAYSVSEDKKDMSTQKIKNEIRDLIEKENKKSPLSDQKLSEILKEKGMNISRRTVAKYREEIGIKSSAKRKRYEGHHHHHH", "soluble on expression in E. coli": "soluble"}
{"sequence": "MSLNLTFKKKSFFFKLSSKVDNSNTTYNYKSGWIIKLKNIEKGVGFGEVNPLRKHDLDACQIQLNQIPKYVNSKNISELIKNFHPCIQSAINSALAEIERKINFQENYYFNEIDQTAILLDPHNALKELIILKGNKLLNKKSLTIKWKVGIQDNFSEEKTLIEILNHLKSNIKLRIDANGSWERETANRWVDILKDIENIDWLEQPLSKDDIEGLKELNKKMPIALDESLLKYPYLINEWDGWQIRRPSQERNPMQLLKELKDKKGFRSLSTSFETGIGRRWLFHLSSLQLLGLTPKVPGLALKKNPNSFLFQNDAQKIWDQLEGHHHHHH", "soluble on expression in E. coli": "not soluble"}
{"sequence": "MSLNLTVSDVVELMGDAVVQTGEASLQTQPVEWVSVIETPVENFVRENELVLTTGIGCGEDEERFLQFVHDIAASNAAALAIAMGRFVKHIPDRVLHYASTHGLILLEIPWELRFADLIQSVLLQMEQRKQKEIEQAESLRKQLLEMEGHHHHHH", "soluble on expression in E. coli": "soluble"}
{"sequence": "MSLNPLSRNVIPIEIHRIVAVGDVHGDAERFRQILEMSGVISLRSNSSKQVVWKPRWGTKEGNFFREYGTRLRTTLIQTGDLIDRGEEDLEVLEMAVSLFNEVRTNYTDDKVVLLMGNHELLNLQGHFHYVHSKSMGGFLTRALRKRAFELDGTFGGFILENFTVAYAVADTLFVHAGIDEHVVSDGIERLNREAKQAIRTKNFGHILLGSTGPLWSRKMFLDASNGRCADTKKALASLGVKRVVVGHTPQRSGRVETFCGGSVIAIDVGMSRWMYGNIAALEITVTSYSSGDGEGHHHHHH", "soluble on expression in E. coli": "soluble"}
